Data on 4 molecules can be found in patent publication US11268120B2, “Identification of transglutaminase substrates and uses therefor” (Roche Sequencing Solutions, Inc., priority 2014, dated 2022).

Assay [1] has as its target T1, MTG (Streptomyces mobaraensis, UniProt P81453).
T1 construct: purchased Zedira GmbH
T1 sequence (P81453 77-407): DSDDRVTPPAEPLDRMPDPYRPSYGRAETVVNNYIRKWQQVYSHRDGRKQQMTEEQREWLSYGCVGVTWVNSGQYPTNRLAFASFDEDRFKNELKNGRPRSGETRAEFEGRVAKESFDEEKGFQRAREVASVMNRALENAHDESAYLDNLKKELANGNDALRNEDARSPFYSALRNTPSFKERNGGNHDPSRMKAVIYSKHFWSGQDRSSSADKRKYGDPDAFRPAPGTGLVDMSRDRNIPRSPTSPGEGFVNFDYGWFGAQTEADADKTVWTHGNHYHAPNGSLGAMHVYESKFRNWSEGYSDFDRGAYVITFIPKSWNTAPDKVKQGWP
The assay is described as follows: GLDH-coupled continuous assay for MTG activity in solution, Lys-containing substrate peptides. In kind it is biochemical. The procedure:
(§1) FIG. 3 is a plot of MTG activity obtained by measuring rates of NADH oxidation at 340 nm and 37° C. using various concentrations of the di-peptide QG (1-20 mM) and the peptide […] (SEQ ID NO: 86) (0.2-5 mM) in the GLDH-coupled assay. The Michaelis-Menten equation was used to fit hyperbolic curves to the data points, giving Km and Vmax parameters and allowing calculation of turnover number (kcat) and catalytic efficiency (kcat/KM). Improved performance of array selected […] (SEQ ID NO: 86) (open squares) substrate was observed compared to standard QG-substrate (filled squares). ‘Z’ represents a carboxybenzyl protective group. […] The Michaelis-Menten equation was used to fit hyperbolic curves to the data points, giving Km and Vmax parameters as well as allowing calculation of turnover number (kcat) and catalytic efficiency (kcat/KM). Improved performance of array selected […] (SEQ ID NO: 80) (filled squares) substrate was observed as compared to a […] (SEQ ID NO: 81) substrate (filled circles). ‘Z-’ represents a carboxybenzyl protective group.
Lys-tag peptides were assayed in solution analog to the Gln-containing substrates: The assay was performed in a 96-well microtiter plate in the presence of 1.25 mM α-ketoglutarate, 100 μM Z-[…] (SEQ ID NO: 86) peptide as […], 0.2 U of glutamate dehydrogenase (GLDH), 500 μM NADH and Lys-containing substrate peptide concentrations ranging between 0 and 500 μM in 200 mM MOPS, 1 mM EDTA pH 7.2 (total volume per well 200 μl). The reaction was started by the addition of 0.1 U of MTG (Zedira GmbH) and the oxidation of NADH was continuously recorded against a blank at 340 nm for 20 min using a Biotek Synergy H4 microplate reader thermostated at 37° C. with short shaking intervals before each measurement. After a short lag phase, where the GLDH was saturated by MTG-mediated release of ammonia, linear rates of absorbance versus time, corresponding to MTG turnover, were observed, and subjected to Michaelis-Menten kinetic analysis.

Assay [2] addresses T1, MTG. The assay is described as follows: GLDH-coupled continuous assay for MTG activity in solution, Gln-containing substrate peptides. The conditions noted are these: pH 7.2, 37° C. In kind it is biochemical. The procedure:
as §1
It was next determined whether peptides selected in the array assay were also preferred substrates in the solution reaction. The performance of the […] (SEQ ID NO: 26) peptide found in the array assay and the QG peptide substrate commonly used for testing MTG activity were compared. […]
The assay was performed in a 96-well microtiter plate in the presence of 10 mM α-ketoglutarate, 10 mM glycine methyl ester as acyl acceptor, 2 U of glutamate dehydrogenase (GLDH), 500 μM NADH (i.e., reduced nicotinamide adenine dinucleotide) and Gln-containing substrate peptide concentrations ranging between 0.2 and 20 mM in 200 mM MOPS (i.e., 3-(N-morpholino)propanesulfonic acid), 1 mM EDTA pH 7.2 (total volume per well 200 μl). The reaction was started by the addition of 0.1 U of MTG (Zedira GmbH) and the oxidation of NADH was continuously recorded against a blank at 340 nm for 20 min using a Biotek Synergy H4 microplate reader thermostated at 37° C. with short shaking intervals before each measurement. […]

Assay [3] is described as follows: BIACORE 3000 binding kinetics of VitDBP constructs to biotin labeled 25-OH-VitD2. The conditions noted are these: 25° C. The procedure: Experiments were carried out to determine whether the addition of an array-selected motif interferes with the ability of VitDBP to bind to its natural ligand, 25-hydroxylated vitamin D2 (25-OH-VitD2). The glutamine donor motif selected for use was […] (i.e., SEQ ID NO 86). A BIACORE SA sensor was mounted into a BIACORE 3000 instrument. The instrument was tempered at 25° C. The sensor was preconditioned as recommended by the manufacturer (GE Healthcare). The system buffer was PBS pH 8.2 with 5% DMSO and 0.05% TWEEN20. The sample buffer was the system buffer supplemented with 1 mg per ml CMD (Sigma). From a 300 nM biotin labeled 25-OH-VitD2 (25-OH-VitD2-bi) sample solution 860 RU were captured on the sensor flow cell 2 by a 2 min injection at 10 μl per minute. The sensor surface was finally saturated by 5 μM amino-PEO-biotin (Pierce). As a reference, 1 μM amino-PEO-biotin was injected into flow cell 1 for 1 min at a rate of 10 μl per minute.
The analytes wt-VitDBP-His8 and wt-VitDBP-His8-Q2 were compared for their binding behavior towards 25-OH-VitD2. The Gln-motif was later ruthenylated by an MTG catalyzed reaction as described (FIGS. 10A and 10B).
The analytes were injected in concentration series of 600 nM, 200 nM, 67 nM, 22 nM, 7.4 nM and 0 nM (buffer only). The analyte association was monitored for 3 min and the dissociation for 5 min both at 20 μl per minute (FIGS. 11 and 12).
After each injection the system was regenerated by a 100 mM HCl injection for 1 minute and 15 seconds at 20 μl per minute followed by a 2 min injection of 10 mM glycine buffer pH 1.5. The data was overlayed in a BIACORE sensorgram and kinetic data was calculated by fitting a Langmuir 1:1 binding model to the data obtained as recommended by the manufacturer using the Biaevaluation Software version 4.1.

No end group written: not given here. *: point of attachment. Cbz = O=C(OCc1ccccc1)*

On to Z-GGGARSKLGGGG, for which, at MTG [1], the “apparent difference in MTG catalytic efficiency compared to low-signal substrate GGGDEKPDGGGG” value was “at least 10 fold”. Also, the Km at MTG [1] (Lys-peptide 0-500 μM, 100 μM Z-GGGDYALQGGGG, pH 7.2, 37° C.) was determined as 66.8 ± 20.2 µM. Also, the maximal velocity (Vmax) on MTG [1] (Lys-peptide, 0.1 U MTG, pH 7.2, 37° C.) turned out to be 5.1 ± 0.5 pmol/s. For the same molecule, the turnover number (kcat) at MTG [1] (Lys-peptide, pH 7.2, 37° C.) was found to be 0.066 s⁻¹.
“Z-GGGDEKPDGGGG (Cbz-GGGDEKPDGGGG) [reference compound]”: in the assay with MTG [1] (kinetic data could not be determined), the “MTG activity (in words)” value was “extremely low activity”.
With Z-GGGDYALQGGGG (Cbz-GGGDYALQGGGG), the Km in the assay with MTG [2] (Gln-peptide 0.2-20 mM, 10 mM glycine methyl ester as acyl acceptor) was determined as 970 ± 320 µM. In addition, the maximum rate (Vmax) with MTG [2] (Gln-peptide, 0.1 U MTG) was 0.46 ± 0.06 nmol/s. In addition, the kcat with MTG [2] (Gln-peptide) stood at 6.0 s⁻¹.

B1: wt-VDBP-His8: wild type vitamin D binding protein with C-terminally fused 8× Histidine tag, without Q2 tag (protein, UniProt P02774 17-474, looked up)
Vitamin D-binding protein: LERGRDYEKNKVCKEFSHLGKEDFTSLSLVLYSRKFPSGTFEQVSQLVKEVVSLTEACCAEGADPDCYDTRTSALSAKSCESNSPFPVHPGTAECCTKEGLERKLCMAALKHQPQEFPTYVEPTNDEICEAFRKDPKEYANQFMWEYSTNYGQAPLSLLVSYTKSYLSMVGSCCTSASPTVCFLKERLQLKHLSLLTTLSNRVCSQYAAYGEKKSRLSNLIKLAQKVPTADLEDVLPLAEDITNILSKCCESASEDCMAKELPEHTVKLCDNLSTKNSKFEDCCQEKTAMDVFVCTYFMPAAQLPELPDVELPTNKDVCDPGNTKVMDKYTFELSRRTHLPEVFLSKVLEPTLKSLGECCDVEDSTTCFNAKGPLLKKELSSFIDKGQELCADYSENTFTEYKKKLAERLKAKLPDATPTELAKLVNKHSDFASNCCSINSPPLYCDSEIDAELKNIL
modifications: His8 tag
In assay [3] (Langmuir 1:1 binding model), B1 displayed a dissociation constant (Kd) of 95 nM, a ka of 13800 M⁻¹ s⁻¹ and a kd of 0.00131 s⁻¹. In assay [3] (Ligand VitD2-250H-biotin (300 nM)), this molecule displayed a Kd of 95 nM.
